What all share (experiment): co-IP
The target of test [1] is CD4 K452A (mouse) (UniProt P06332).
For test [2], the target named is CD4 R449A (mouse) (UniProt P06332).
The target of test [3] is CD4 WT (mouse) (UniProt P06332).
The target in test [4] is CD4 Dbl (mouse) (UniProt P06332).
Test [5] addresses CD4 R426A (mouse) (UniProt P06332).

Experimental findings from doi:10.1101/2021.04.29.441928 are described below.

Chain of Lck (P06240 whole entry): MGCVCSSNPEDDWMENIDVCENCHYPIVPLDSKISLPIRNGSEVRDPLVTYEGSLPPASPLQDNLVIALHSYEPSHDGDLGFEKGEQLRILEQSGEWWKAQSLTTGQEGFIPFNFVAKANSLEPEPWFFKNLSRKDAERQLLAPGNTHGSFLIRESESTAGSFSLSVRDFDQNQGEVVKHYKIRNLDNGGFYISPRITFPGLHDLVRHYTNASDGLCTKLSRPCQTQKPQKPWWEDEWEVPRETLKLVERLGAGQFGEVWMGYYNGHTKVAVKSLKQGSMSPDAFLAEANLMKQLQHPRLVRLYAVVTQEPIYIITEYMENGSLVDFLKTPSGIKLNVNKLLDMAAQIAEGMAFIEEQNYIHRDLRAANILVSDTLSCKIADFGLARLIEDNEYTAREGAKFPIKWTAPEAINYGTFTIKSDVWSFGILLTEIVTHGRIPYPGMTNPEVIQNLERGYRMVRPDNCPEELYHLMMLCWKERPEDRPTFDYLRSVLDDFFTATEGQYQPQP

With “Lck (from UniProt P06240 1-509) (enzyme)”, the total AUC of the raw Lck signal co-IP'd with CD4 was determined as 2380 in test [1]; 2640 in test [2]; 2630 in test [3]; 2160 in test [4]; 2920 in test [5].
